Bridges are numbered along the chain shown (N, C = ends).
Key:
[1] = Circular dichroism (CD) spectroscopy of linear and stapled peptides in water or 40% TFE/water (Example 3); format: physicochemical; conditions: for [0]208 mean residue ellipticity: λ = 208 nm; for [0]222 mean residue ellipticity: λ = 222 nm
Experimental: CD spectra were obtained on a Jasco J-810 spectropolarimeter and recorded in the range of 180-260 nm. Peptide solutions were prepared with a 0.1M phosphate buffer solution to a concentration of 0.5 mM. The measurements were performed in quartz cuvettes with a path length of 1 mm and a scanning speed of 10-50 nm/min. Five individual data points were averaged by the instrument in order to obtain the reported CD spectrum. The measurements were carried out at 20° C. A blank solution of 0.1M phosphate buffer solution was run before every measurement in order to baseline correct for any UV-interference observed from the buffer.
CD data for the 14- and 15-mer peptides containing HABD2 (VSKLRSQLVKRKQN, SEQ ID NO: 2) and HABD1 (NLKQKIKHVVKLKDE, SEQ ID NO: 4) and cyclized derivatives thereof in water or 40% TFE/water are provided below in Tables 8 (water) and 9 (40% TFE/water). Tables 8 and 9 provide the mean residue ellipicity ([θ] deg cm^2 dmol^−1) at λ=222 and 208 nm for each peptide and ratios of ellipticities at 222/208. Each of the peptides was acetylated at its amino terminus and amidated at its carboxy terminus.
CD data for linear peptides having the sequences […] (SEQ ID NO: 5) and […] (SEQ ID NO: 6) and cyclized derivatives thereof in water or 40% TFE/water are provided below in Tables 12 (water) and 13 (40% TFE/water). Tables 12 and 13 provide the mean residue ellipicity ([0] deg cm^2 dmol^−1) at λ=222 and 208 nm for each peptide and ratios of ellipticities at 222/208. Each of the peptides was acetylated at its amino terminus and amidated at its carboxy terminus.
Circular Dichroism (CD) spectroscopy is a tool that is used to study the secondary structure characteristics of a compound. Peptides and proteins can fold into organized structures, such as alpha helices and beta sheets, which are the result of complex hydrogen bonding and other interactions between amino acid side chains, as well as adopt a random coil formation, which lacks much of the organization of the other two structures. The CD spectrum of an alpha helix is characterized by two local minima at 208 nm and 222 nm. The ratio of the values of the molar ellipticities at these wavelengths ([θ]222/[θ]208) is a strong indication of the relative helicity of a compound; a compound is more helical when the ratio of these two values approaches 1.0. Synthetic constraints introduced to the peptide backbone can force a peptide chain to increase its helical character. These constraints can be introduced by staples, of varying types, which allow cyclization of the peptide backbone to take place.

[2] = Direct HA-binding ELISA of biotinylated peptides on HA coated plates (Example 4); set-up: key to HA binding: absorbance (color) read at 450 nm; conditions: for HA binding: as repeated in tables 16, 18, 20; for HA direct binding (OD): optical density, summary tables 15, 17, 19
Experimental: Each of these peptides was biotinylated at its amino-terminus, and an AEEA spacer was included to separate the peptide sequence from the biotin molecule.
HA coated plates were purchased (ECHELON). Peptides were dissolved in 2 mM PBS to constant molarity, aliquoted and stored at −20° C. until used in assays. 7 kDa biotin-labeled RHAMM (SEQ ID NO: 1) was synthesized and used as a positive control in these assays. Biotin labeled peptides were added to the HA coated wells (n=3 replicates/peptide) at either 0.8 or 0.08 μM and then incubated with shaking overnight at 4° C. Wells were washed free of excess unbound peptides using 200 μl PBS (4 times). 100 μl of Streptavidin-HRP was then added to each well and the plate was incubated at room temperature for 1 hr. The plate was then washed with 200 μl PBS/well 4 times and TMB Liquid Substrate System for ELISA (Sigma) was added to each well, incubated for 5-10 min at room temperature and color read at 450 nm Plate Reader (BioTek, SYNERGY H4, Hybrid Reader).
Direct HA-binding results for the biotinylated equivalents of compounds 132 and 150-161 are show in FIG. 39, and results for compounds 265-268 and 275-278 are shown in FIG. 40.

[3] = Circular dichroism (CD) spectroscopy of HABD2 peptides in Milli-Q water (Example 1); format: physicochemical; conditions: for [θ]222/[θ]208 ratio of ellipticities / fH fraction helicity / Molar ellipticity [θ]192 / Molar ellipticity [θ]208 / Molar ellipticity [θ]222: 0.5 mM in Milli-Q water; for fH fraction helicity: equations 1-3; for α-helical character by CD (in words): Milli-Q water; for Molar ellipticity [θ]192: λ = 192 nm; for Molar ellipticity [θ]208: λ = 208 nm; for Molar ellipticity [θ]222: λ = 222 nm
Excerpt: In addition, a large mean residue ellipticity indicates greater α-helical character. […] This was predicted to be the case, as there is a lack of contributing residues that might form a hydrophobic core, thereby helping to stabilize the secondary structure of the linear peptide. For this reason, bridges were introduced into the peptides. […] The differences in α-helicity induced by the bridges placed at different points within each peptide may be due to the differences in their primary sequences. Specifically, two amino acids (at the i and i+4 position) have to be replaced in order to form the lactam bridge. In compound 133, leucine was replaced at both the i and i+4 position; while in compound 136, glutamine was replaced at the i position and aspartic acid was replaced at i+4. Leucine and glutamine are proposed to be helix-stabilizing residues.
A larger portion of the RHAMM protein was used as the reference for α-helical character of the truncated peptides. 7 kDa RHAMM (SEQ ID NO: 1) is a mini protein that is composed of 62 amino acids, which was derived from the C-terminus of the full-length RHAMM sequence. It contains both HABDs, and is predicted to have almost complete α-helix shape, similar to that of native full-length RHAMM.
A peptide's α-helicity can be quantified using equations 1-3: fH=[([θ]obs222−[θ]c)/([θ]max222−[θ]c)] (Equation 1) [θ]c=2220+53T (Equation 2) [θ]max222=(−44000+250T)(1−k/N) (Equation 3) where fH is the ratio of the average number of helical hydrogen bonds divided by the total number of hydrogen bonds that can be found in a peptide, T is the temperature in degrees Celsius, N is the number of residues in the peptide and k is a constant of ellipticity when 100% of the structure is α-helical (3 for carboxyamidated peptides).
Milli-Q water was chosen as the solvent in which all peptides would be dissolved for CD spectroscopy, as it is a UV invisible solvent, which is a requirement of the analytical technique, and it represents RHAMM's natural environment in the body. Luo and Baldwin [18] stated that when peptides are taken out of their native protein sequence, they usually show little to no helical formation in water alone. For this reason, TFE/H2O solutions are commonly used in studies to observe the α-helix characteristics, and may improve the helical nature of the peptides observed here. However, a helix-stabilizing solvent, such as TFE, would not be as contextually relevant, as there are no solvent stabilizing effects in the body. Thus use of TFE would tend to produce skewed results and not be representative of the peptide's natural behavior.

[4] = [θ]222/[θ]208 ratio in water, summary tables 15, 17, 19
[5] = as repeated in tables 16, 18, 20

| Molecule | [θ]222/[θ]208 ratio of ellipticities [1, 4] | [θ]222/[θ]208 ratio of ellipticities [1, 5] | [0]222/[0]208 ratio of ellipticities ([1]; in 40% TFE/water) | [0]222/[0]208 ratio of ellipticities ([1]; in water) | [0]208 mean residue ellipticity ([1]; in 40% TFE/water) | [0]208 mean residue ellipticity ([1]; in water) | [0]222 mean residue ellipticity ([1]; in 40% TFE/water) | [0]222 mean residue ellipticity ([1]; in water) | HA binding [2] | HA direct binding (OD) [2] | [θ]222/[θ]208 ratio of ellipticities [3] | fH fraction helicity [3] | α-helical character by CD (in words) [3] | Molar ellipticity [θ]192 [3] | Molar ellipticity [θ]208 [3] | Molar ellipticity [θ]222 [3] |
| --- | --- | --- | --- | --- | --- | --- | --- | --- | --- | --- | --- | --- | --- | --- | --- | --- |
| Ac-(cyclo-5,9)-VSKL[KSQLE]KRKQN-NH2 (Ac-VSKLKSQLEKRKQN-NH2; lactam 5-9; SMILES CC(=O)N[C@H](C(=O)N[C@@H](CO)C(=O)N[C@@H](CCCCN)C(=O)N[C@@H](CC(C)C)C(=O)N[C@H]1CCCCNC(=O)CC[C@@H](C(=O)N[C@@H](CCCCN)C(=O)N[C@@H](CCCNC(=N)N)C(=O)N[C@@H](CCCCN)C(=O)N[C@@H](CCC(N)=O)C(=O)N[C@@H](CC(N)=O)C(N)=O)NC(=O)[C@H](CC(C)C)NC(=O)[C@H](CCC(N)=O)NC(=O)[C@H](CO)NC1=O)C(C)C) [Compound 154] | 0.20 | 0.20 | 0.75 | 0.20 | -1.18E+04 deg cm^2 dmol^−1 | -4,95E+03 deg cm^2 dmol^−1 | -8.78E+03 deg cm^2 dmol^−1 | -9.74E+02 deg cm^2 dmol^−1 | 0.045 | 0.045 OD |  |  |  |  |  |  |
| Ac-(cyclo-6,10)-VSKLR[KQLVE]RKQN-NH2 (Ac-VSKLRKQLVERKQN-NH2; lactam 6-10; SMILES CC(=O)N[C@H](C(=O)N[C@@H](CO)C(=O)N[C@@H](CCCCN)C(=O)N[C@@H](CC(C)C)C(=O)N[C@@H](CCCNC(=N)N)C(=O)N[C@H]1CCCCNC(=O)CC[C@@H](C(=O)N[C@@H](CCCNC(=N)N)C(=O)N[C@@H](CCCCN)C(=O)N[C@@H](CCC(N)=O)C(=O)N[C@@H](CC(N)=O)C(N)=O)NC(=O)[C@H](C(C)C)NC(=O)[C@H](CC(C)C)NC(=O)[C@H](CCC(N)=O)NC1=O)C(C)C) [Compound 155] | 0.37 | 0.37 | 0.75 | 0.37 | -1.71E+04 deg cm^2 dmol^−1 | -5.30E+03 deg cm^2 dmol^−1 | -1.28E+04 deg cm^2 dmol^−1 |  | 0.05 | 0.05 OD |  |  |  |  |  |  |
| H-(cyclo-5,9)-VSKL[ESQLK]KRKQN-NH2 (H-VSKLESQLKKRKQN-NH2; lactam 5-9; SMILES CC(C)C[C@@H]1NC(=O)[C@H](CCC(N)=O)NC(=O)[C@H](CO)NC(=O)[C@@H](NC(=O)[C@H](CC(C)C)NC(=O)[C@H](CCCCN)NC(=O)[C@H](CO)NC(=O)[C@@H](N)C(C)C)CCC(=O)NCCCC[C@@H](C(=O)N[C@@H](CCCCN)C(=O)N[C@@H](CCCNC(=N)N)C(=O)N[C@@H](CCCCN)C(=O)N[C@@H](CCC(N)=O)C(=O)N[C@@H](CC(N)=O)C(N)=O)NC1=O) [Compound 134] |  |  |  |  |  |  |  |  |  |  | 0.57 | 0.22 | increase in α-helix structure | 1002.14 deg cm^2 dmol^−1 residue^−1 | −7685.97 deg cm^2 dmol^−1 residue^−1 | −4403.89 deg cm^2 dmol^−1 residue^−1 |
| H-(cyclo-7,11)-VSKLRS[ELVKK]KQN-NH2 (H-VSKLRSELVKKKQN-NH2; lactam 7-11; SMILES CC(C)C[C@H](NC(=O)[C@H](CCCCN)NC(=O)[C@H](CO)NC(=O)[C@@H](N)C(C)C)C(=O)N[C@@H](CCCNC(=N)N)C(=O)N[C@@H](CO)C(=O)N[C@H]1CCC(=O)NCCCC[C@@H](C(=O)N[C@@H](CCCCN)C(=O)N[C@@H](CCC(N)=O)C(=O)N[C@@H](CC(N)=O)C(N)=O)NC(=O)[C@H](CCCCN)NC(=O)[C@H](C(C)C)NC(=O)[C@H](CC(C)C)NC1=O) [Compound 136] |  |  |  |  |  |  |  |  |  |  | 0.30 | 0.14 | did not seem to stabilize | 1437.80 deg cm^2 dmol^−1 residue^−1 | −5084.93 deg cm^2 dmol^−1 residue^−1 | −1568.07 deg cm^2 dmol^−1 residue^−1 |
| 7 kDa RHAMM: mini protein of 62 amino acids derived from the C-terminus of full-length RHAMM, contains both HABDs; reference for α-helical character (protein, listed as Mus musculus) RDSYAQLLGHQNLKQKIKHVVKLKDENSQLKSEVSKLRSQLVKRKQNELRLQGELDKALGIR |  |  |  |  |  |  |  |  |  |  | 0.46 | 0.18 |  | 1839.66 deg cm^2 dmol^−1 residue^−1 | −7553.76 deg cm^2 dmol^−1 residue^−1 | −4046.60 deg cm^2 dmol^−1 residue^−1 |
